Source: patent US20180044434A1
Residue numbers refer to the chain shown, from its start.

B1: A11 (antibody, V domains shown)
VH: AVTLDESGGGLQTPGGALSLVCKASGFDFSSYGMGWMRQAPGKGLEYVAAIRNDGSWTGYGAAVKGHATISRDNGQSTVRLQLNNLRAEDTGTYYCAKTTGSRGGSIDAWGHGTEVIVS
VL: ASTQPSSVSANLGGTVEITCSGGGRYYYGWYQQKSPGSAPVTVIYANDKRPSDIPSRFSGSKSGSTGTLTITGVQAEDEAVYFCGSAETSSYVFGAGTTLTVL
B2: G8 (antibody, V domains shown)
VH: B1 VH with D28T, S31T, G33A, H67R, S71L, N84S, T99Y, R103S, D108G
VL: ASTQPSSVSANLGGTVEITCSGGNRNYYYGWYQQKSPGSAPVTLIYANDKRPSNIPSRFSGSKSGSTGTLTITGVQAEDEAVYFCGTADTGKYVFGAGTTLTVL
B3: E9 (antibody, V domains shown)
VH: B1 VH with A17T, A24G, D28T, A62S, H67R, G92A, T100S, R103S, I107V
VL: B1 VL

Legend:
[1] = biological target: T1, Ala mutant of TA0096, SEQ ID NO: 32; test: ELISA, coated peptide
T1 sequence (peptide): EENMDAQWMQDEMEIGY

[2] = biological target: T2, Ala mutant having 3-amino acid substitution, SEQ ID NO: 46; test: ELISA, coated peptide
T2 sequence (peptide): EENMDDAAAQDEMEIGY

Binder	OD 490/630 nm [1]	OD 490/630 nm [2]
B1	0.628	–
B2	–	0.178
B3	0.177	–
